Test results: patent publication US20260209333A1 (VETMAB BIOSCIENCES, published 2026)
Numbering of substitutions follows the chain as printed.

Key:
[1] = molecular target: T1, Canine TNF-alpha (Sino Biologicals) (canine, UniProt P51742 77-233); assay: SPR, Biacore 8K, antibody captured on Protein A chip, antigen as analyte, 25 C
T1 construct: Bought protein; also called Canine TNFα
Experimental: This study was performed to measure the binding affinity of antibodies to antigens using a Biacore 8K.
(§1) All the data were processed using the Biacore 8K Evaluation software version 3.0. Flow cell 1 and blank injection of buffer in each cycle were used as double reference for Response Units subtraction.

[2] = molecular target: T2, Recombinant canine IL23 (single chain p40 + linker + p19, Avitag, polyHis tag) (canine); assay: Biacore affinity assay ('Active' = specific binding to canine IL23)
T2 construct: Single chain p40-linker-p19 with a tag for site specific biotinylation and a polyHis tag, expressed in CHO cells as a monomeric protein; also called canine IL23 polypeptide
T2 chain: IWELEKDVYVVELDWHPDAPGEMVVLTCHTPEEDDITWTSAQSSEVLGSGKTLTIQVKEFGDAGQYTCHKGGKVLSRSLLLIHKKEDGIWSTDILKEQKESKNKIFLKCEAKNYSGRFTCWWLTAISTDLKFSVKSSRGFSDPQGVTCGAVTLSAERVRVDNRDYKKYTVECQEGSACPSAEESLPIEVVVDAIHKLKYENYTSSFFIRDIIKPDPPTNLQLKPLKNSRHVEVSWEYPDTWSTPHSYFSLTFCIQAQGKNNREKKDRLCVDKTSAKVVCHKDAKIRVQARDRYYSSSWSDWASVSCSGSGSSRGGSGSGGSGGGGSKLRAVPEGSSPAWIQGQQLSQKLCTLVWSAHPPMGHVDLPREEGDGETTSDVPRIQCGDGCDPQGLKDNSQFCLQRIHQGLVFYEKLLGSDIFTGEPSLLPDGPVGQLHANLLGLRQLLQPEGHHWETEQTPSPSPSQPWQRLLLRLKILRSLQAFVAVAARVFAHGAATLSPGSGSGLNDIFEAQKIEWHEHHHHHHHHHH

Canine p40 polypeptide = molecular target: T3, Canine p40 polypeptide (canine, UniProt Q28268 23-329); assay: SPR, Biacore 8K, antibody captured on Protein A chip, antigen as analyte, 25 C
T3 sequence (looked up): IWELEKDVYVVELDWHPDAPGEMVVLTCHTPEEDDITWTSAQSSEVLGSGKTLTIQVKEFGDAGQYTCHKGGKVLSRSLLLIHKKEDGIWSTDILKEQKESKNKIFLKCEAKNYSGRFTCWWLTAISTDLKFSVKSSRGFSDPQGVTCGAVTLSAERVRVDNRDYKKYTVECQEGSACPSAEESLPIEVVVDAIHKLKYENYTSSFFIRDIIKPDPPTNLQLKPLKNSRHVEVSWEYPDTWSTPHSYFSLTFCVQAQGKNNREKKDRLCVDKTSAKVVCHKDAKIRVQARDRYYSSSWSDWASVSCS
Experimental: (§2) This study was performed to measure the binding affinity of anti-IL23 antibodies to IL23 and p40 antigens using a Biacore 8K.
as §1

[3] = molecular target: T2, Recombinant canine IL23 (single chain …); assay: as above
Experimental: as §2, §1

T1 sequence (P51742 77-233 limits assumed): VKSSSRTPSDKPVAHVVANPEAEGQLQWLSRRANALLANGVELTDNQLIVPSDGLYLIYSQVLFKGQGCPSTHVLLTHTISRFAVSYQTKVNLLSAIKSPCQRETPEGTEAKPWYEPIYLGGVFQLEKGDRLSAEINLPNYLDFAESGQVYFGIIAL

B1: Caninized anti-TNFα D2E7 antibody (caninized VL + canine kappa constant region; caninized VH + canine IgG-B constant region) (antibody, V domains shown)
VH: EVQLVESGGDLVKPAESLRLSCVASGFTFDDYAMHWVRQAPGKGLEWVSAITWNSGHIDYADSVEGRFTISRDNARNTLYLQMNSLRAEDTAVYYCAKVSYLSTASSLDYWGQGTLVTVSS
VL: DIVMTQTPLSLSVSPGEPASISCRASQGIRNYLAWYQQKPGKAPKLLIYAASTLQSGVPDRFSGSGSGTDFTLRIGRVEAEDAGIYYCQRYNRAPYTFGQGTRLEVRR
notes: Expressed in Expi293F cells, 150 kDa, captured on a Protein A chip; also called Caninized Anti-TNF-VH-VL
Which results are given for B1?
Kd [1]: 3.91 nM; koff [1]: 0.000818 s⁻¹; kon [1]: 209000 M⁻¹ s⁻¹

B2: Anti-IL23 caninized VL variant V2 / caninized VH variant V6 (antibody, human IgG1, V domains shown)
VH: EVQLVESGGDLVKPGGSLRLSCKGSGYSFTTYWLGWVRQAPGKGLQWIGIMSPVDSDIRYADAVKGRFTVSRDNAKRTLYLQMNSLRAEDTAIYYCARRRPGQGYFDFWGQGTLVTVSS
VL: DIVMTQTPLSLSVSPGEPASISCRASQGISSWLAWYLQKAGQSPRLLPYAASSLQSGVPDRFSGSGSGTDFTLRIGRVEAEDAGIYYCQQYNIYPYTFGQGTRLEVR
notes: also called VL V2 + VH V6
Does B2 bind [2]?
Result: binds

B3: Anti-IL23 C340 VL / caninized VH variant V1 (antibody, V domains shown)
VH: EVQLVQSGAEVKKPGASVKVSCKGSGYSFTTYWLGWVRQAPGAGLDWMGIMSPVDSDIRYAGKFQGQVTMSVDTSTSTAYMELSSLRAGDIAVYYCARRRPGQGYFDFWGQGTLVTVSS
VL: DIQMTQSPSSLSASVGDRVTITCRASQGISSWLAWYQQKPEKAPKSLIYAASSLQSGVPSRFSGSGSGTDFTLTISSLQPEDFATYYCQQYNIYPYTFGQGTKLEIK
notes: also called VL C340 + VH V1
Does B3 bind [2]?
Result: binds

B4: Caninized anti-IL23 with VL domain V2.1 and VH domain V1.1 (antibody, V domains shown)
VH: B3 VH with A61S, G62P, K63S
VL: B2 VL with L37Q, G41E, Q42K, S43A, R45K, L46S, P48I
notes: also called VL V2.1 + VH V1.1; exemplary caninized anti-IL23
Does B4 bind [2]?
Result: binds

B5: Chimeric anti-IL23 antibody (clone C340 VL and VH domains fused to canine kappa light chain constant region and canine IgG-B constant region) (antibody, V domains shown)
VH: EVQLVQSGAEVKKPGESLKISCKGSGYSFTTYWLGWVRQMPGKGLDWIGIMSPVDSDIRYSPSFQGQVTMSVDKSITTAYLQWNSLKASDTAMYYCARRRPGQGYFDFWGQGTLVTVSS
VL: DIQMTQSPSSLSASVGDRVTITCRASQGISSWLAWYQQKPEKAPKSLIYAASSLQSGVPSRFSGSGSGTDFTLTISSLQPEDFATYYCQQYNIYPYTFGQGTKLEIKR
notes: also called Anti-IL23-VH-VL; Anti-IL23 (full length IgG form)
Which Kd (Canine p40 polypeptide) does the source give for B5 here?
The Kd was 1.02 nM.

What about the koff (Canine p40 polypeptide) of the same binder?
The koff was 0.00478 s⁻¹.

What about the kon (Canine p40 polypeptide) of the same binder?
Its kon is 4.68e+06 M⁻¹ s⁻¹.

And the Kd [3]?
Its Kd is 0.58 nM.

And the koff [3]?
The koff was 0.00338 s⁻¹.

What about the kon [3] of the same binder?
The kon was 5.83e+06 M⁻¹ s⁻¹.
